Results as given in publication PMC11703348, “Role of Aspartate 42 and Histidine 79 in the aiPLA2 activity and oligomeric status of Prdx6 at low pH” (Research Square, 2024).

Tests used:
[1] = target: the molecule itself; test: dynamic light scattering; pH 7.4; protein 2 mg/ml, 25 °C; hydrodynamic diameter and volume fraction (Zetasizer)
[2] = target: the molecule itself; test: native gel or EMSA; native-PAGE at neutral pH: 50 mM Tris-HCl, 100 mM NaCl pH 7.4, running buffer 35 mM Hepes, 43 mM imidazole pH 7.4; continuous 7.5% gel, non-reducing, non-denaturing; markers BSA and ferritin
[3] = target: the molecule itself; test: native gel or EMSA; native-PAGE at low pH: 40 mM Na-acetate pH 4, running buffer 30 mM beta alanine, 20 mM lactic acid pH 3.8, reverse polarity; continuous 7.5% gel, non-reducing, non-denaturing; markers BSA and ferritin

Row | Protein | stoichiometry N [1] | stoichiometry N [2] | stoichiometry N [3]
1 | Peroxiredoxin 6 (Prdx6), recombinant rat wild type (enzyme, UniProt O35244 1-224, looked up, Peroxiredoxin 6 (Prdx6), rat, wild type; cloned between the NdeI and SapI sites of pTYB1; no extra residues remain after intein self-cleavage; also called Wt Prdx6; WT Prdx6) MPGGLLLGDEAPNFEANTTIGHIRFHDFLGDSWGILFSHPRDFTPVCTTELGRAAKLAPEFAKRNVKLIALSIDSVEDHFAWSKDINAYNGAAPTEKLPFPIIDDKDRDLAILLGMLDPAEKDEKGMPVTARVVFIFGPDKKLKLSILYPATTGRNFDEILRVVDSLQLTASNPVATPVDWKKGESVMVLPTLPEEEAKQLFPKGVFTKELPSGKKYLRYTPQP | 2 |  | 
2 | D42A Prdx6 (Asp42 to Ala mutant of rat Prdx6) (enzyme, UniProt O35244 1-224, looked up, Peroxiredoxin 6 (Prdx6), rat, with Asp42 replaced by Ala (QuikChange mutagenesis); the methods print it once as Asp43Ala; Same construct as m1 with the point mutation; also called Asp42A; Asp42-Ala) MPGGLLLGDEAPNFEANTTIGHIRFHDFLGDSWGILFSHPRAFTPVCTTELGRAAKLAPEFAKRNVKLIALSIDSVEDHFAWSKDINAYNGAAPTEKLPFPIIDDKDRDLAILLGMLDPAEKDEKGMPVTARVVFIFGPDKKLKLSILYPATTGRNFDEILRVVDSLQLTASNPVATPVDWKKGESVMVLPTLPEEEAKQLFPKGVFTKELPSGKKYLRYTPQP |  | 2 | ~2
3 | H79A Prdx6 (His79 to Ala mutant of rat Prdx6) (enzyme, UniProt O35244 1-224, looked up, Peroxiredoxin 6 (Prdx6), rat, with His79 replaced by Ala (QuikChange mutagenesis); Same construct as m1 with the point mutation; also called His79A; His79-Ala) MPGGLLLGDEAPNFEANTTIGHIRFHDFLGDSWGILFSHPRDFTPVCTTELGRAAKLAPEFAKRNVKLIALSIDSVEDAFAWSKDINAYNGAAPTEKLPFPIIDDKDRDLAILLGMLDPAEKDEKGMPVTARVVFIFGPDKKLKLSILYPATTGRNFDEILRVVDSLQLTASNPVATPVDWKKGESVMVLPTLPEEEAKQLFPKGVFTKELPSGKKYLRYTPQP |  | 2 | ~2
